Reference: publication PMC10640585, “The E3 ligase Riplet promotes RIG-I signaling independent of RIG-I oligomerization” (Nature Communications, 2023)
Values belong to the binder of their own block, whether it stands above or below them.

Assays:
RIG-I;Riplet = target: T1, RIG-I;Riplet (human;human, UniProt O95786;Q8IUD6 1-925;1-432, |); experiment: cryo-EM; end-end complex, 2 RIG-I:1 RNA:1 Riplet dimer, 3.2 A; EMSA: RNA + RIG-I 30 min RT, then Riplet 30 min RT, 6% native PAGE, GelRed; protein storage buffer 25 mM HEPES pH 7.4, 200 mM NaCl, 5% glycerol, 5 mM BME (bindi); settings: protein: recombinant;recombinant, tags: N-terminal 6xHis-SUMO, removed by ULP1;N-terminal 6xHis-SUMO, chain copies: 2;2, blunt
T1 sequence 1: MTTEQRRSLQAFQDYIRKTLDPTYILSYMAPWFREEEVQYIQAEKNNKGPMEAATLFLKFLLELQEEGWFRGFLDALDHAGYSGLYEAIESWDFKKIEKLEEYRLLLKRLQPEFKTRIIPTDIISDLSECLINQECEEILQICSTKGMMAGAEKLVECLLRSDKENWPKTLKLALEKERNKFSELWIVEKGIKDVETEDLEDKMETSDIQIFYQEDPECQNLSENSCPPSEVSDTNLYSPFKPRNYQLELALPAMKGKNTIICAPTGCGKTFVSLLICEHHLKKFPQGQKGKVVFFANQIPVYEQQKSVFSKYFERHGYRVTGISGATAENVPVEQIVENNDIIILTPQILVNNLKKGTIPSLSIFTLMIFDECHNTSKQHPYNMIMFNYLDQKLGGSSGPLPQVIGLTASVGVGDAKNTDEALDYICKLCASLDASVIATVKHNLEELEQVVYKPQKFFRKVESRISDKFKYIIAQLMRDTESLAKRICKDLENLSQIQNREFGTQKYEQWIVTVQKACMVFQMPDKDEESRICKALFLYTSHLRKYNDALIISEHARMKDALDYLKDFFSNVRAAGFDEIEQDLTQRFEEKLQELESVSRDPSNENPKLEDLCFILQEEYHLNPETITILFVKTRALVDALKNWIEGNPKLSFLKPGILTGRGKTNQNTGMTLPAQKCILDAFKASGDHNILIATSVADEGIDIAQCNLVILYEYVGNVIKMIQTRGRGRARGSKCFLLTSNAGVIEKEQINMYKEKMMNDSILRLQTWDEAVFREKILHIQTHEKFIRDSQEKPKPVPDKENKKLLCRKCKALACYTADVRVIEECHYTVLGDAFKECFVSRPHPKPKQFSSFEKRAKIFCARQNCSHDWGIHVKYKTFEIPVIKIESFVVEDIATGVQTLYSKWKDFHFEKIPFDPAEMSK
T1 sequence 2: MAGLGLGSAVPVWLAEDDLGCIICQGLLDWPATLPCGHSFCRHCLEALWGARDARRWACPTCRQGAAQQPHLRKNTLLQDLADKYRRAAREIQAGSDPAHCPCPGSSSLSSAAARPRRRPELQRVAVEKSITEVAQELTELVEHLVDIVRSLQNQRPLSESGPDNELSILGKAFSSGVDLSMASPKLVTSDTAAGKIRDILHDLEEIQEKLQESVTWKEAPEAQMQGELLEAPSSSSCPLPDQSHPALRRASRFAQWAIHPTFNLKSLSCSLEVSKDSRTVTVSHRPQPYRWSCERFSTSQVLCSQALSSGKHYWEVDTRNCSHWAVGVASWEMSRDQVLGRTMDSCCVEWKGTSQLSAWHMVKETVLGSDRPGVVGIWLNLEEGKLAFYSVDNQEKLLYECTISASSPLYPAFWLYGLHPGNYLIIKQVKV

[1] = target: T2, biotinylated Avi-tagged RIG-I (Retinoic acid inducible gene-I) (human, UniProt O95786 1-925, biotin on the Avi tag (by BirA)); experiment: SPR; biotinylated apo-RIG-I (no RNA) immobilised on a streptavidin SADH chip; Riplet constructs as analyte in HBS-EP+, 50 µl/min, dissociation 180 s, OneStep mode, 1:1 model; settings: both partners purified
T2 construct: RIG-I, human, full-length protein; Used alone (apo), pre-incubated with the RNA p3SLR14 (one RIG-I per RNA) or with p3dsRNA24 (two RIG-I per RNA); also called Avi-RIG-I; Apo-RIG-I; source: E. coli Rosetta 2(DE3), purified (Ni-NTA, heparin, SEC), biotinylated by BirA, SEC; not shown: His6, N-terminal, cleaved; SUMO, N-terminal, cleaved
T2 sequence (looked up): T1 sequence 1

[2] = target: T2, biotinylated Avi-tagged RIG-I (Retinoic …); experiment: SPR; biotinylated RIG-I pre-incubated with p3SLR14 (1:1.5, 4 °C overnight) immobilised on a streptavidin SADH chip; Riplet constructs as analyte in HBS-EP+, 50 µl/min, dissociation 180 s, OneStep mode, 1:1 model; settings: both partners purified
[3] = target: T2, biotinylated Avi-tagged RIG-I (Retinoic …); experiment: SPR; biotinylated RIG-I pre-incubated with p3dsRNA24 (2.4:1, 4 °C overnight; two RIG-I per RNA) immobilised on a streptavidin SADH chip; Riplet constructs as analyte in HBS-EP+, 50 µl/min, dissociation 180 s, OneStep mode, 1:1 model; settings: both partners purified
[4] = target: T3, biotinylated Avi-tagged RIG-I (human, UniProt O95786 1-925, biotin on the Avi tag (by BirA)); experiment: SPR; biotinylated RIG-I pre-incubated with p3dsRNA24 (2.4:1, 4 °C overnight; two RIG-I on one RNA) immobilised on streptavidin SADH chip; Riplet constructs 0.125-10 µM in HBS-EP+, 50 µl/min, dissociation 180 s, OneStep mode, 1:1 model; settings: both partners purified
T3 construct: RIG-I (Retinoic acid inducible gene-I), human, full-length; Immobilised on the SPR chip as apo protein or pre-incubated with p3SLR14 (1:1.5) or p3dsRNA24 (2.4:1; two RIG-I on one RNA); also called Avi-RIG-I; biotinylated RIG-I; source: E. coli Rosetta 2(DE3), purified (Ni-NTA, ULP1, heparin, size exclusion), biotinylated by BirA, size exclusion; not shown: 6xHis, N-terminal, cleaved; SUMO, …
T3 sequence (looked up): T1 sequence 1

[5] = target: T3, biotinylated Avi-tagged RIG-I; experiment: SPR; apo biotinylated RIG-I immobilised on streptavidin SADH chip; Riplet constructs 0.125-10 µM in HBS-EP+, 50 µl/min, dissociation 180 s, OneStep mode, 1:1 model; settings: both partners purified
[6] = target: T3, biotinylated Avi-tagged RIG-I; experiment: SPR; biotinylated RIG-I pre-incubated with p3SLR14 (1:1.5, 4 °C overnight) immobilised on streptavidin SADH chip; Riplet constructs 0.125-10 µM in HBS-EP+, 50 µl/min, dissociation 180 s, OneStep mode, 1:1 model; settings: both partners purified

B1: p3dsRNA24 (dsRNA)
RNA 1: GGACGUACGUUUCGCGACUGUAGA
RNA 2: UCUACAGUCGCGAAACGUACGUCC
modifications: 5'-triphosphate on both strands
binding result (RIG-I;Riplet): binds

B2: Riplet-PrySpry (249-432) (domain or fragment, human, UniProt Q8IUD6 249-432, looked up)
chain: RRASRFAQWAIHPTFNLKSLSCSLEVSKDSRTVTVSHRPQPYRWSCERFSTSQVLCSQALSSGKHYWEVDTRNCSHWAVGVASWEMSRDQVLGRTMDSCCVEWKGTSQLSAWHMVKETVLGSDRPGVVGIWLNLEEGKLAFYSVDNQEKLLYECTISASSPLYPAFWLYGLHPGNYLIIKQVKV
notes: Riplet, human, PrySpry domain, residues 249-432; also called Pspry; source: E. coli Rosetta 2(DE3), purified (Ni-NTA, SEC); not shown: His6, N-terminal, cleaved; SUMO, N-terminal, cleaved
Kd [1]: 3100 nM
koff [1]: 0.18 s⁻¹
kon [1]: 60000 M⁻¹ s⁻¹
Kd [2]: 3600 nM
koff [2]: 0.18 s⁻¹
kon [2]: 51000 M⁻¹ s⁻¹
koff [3]: 0.19 s⁻¹
kon [3]: 130000 M⁻¹ s⁻¹

B4: Riplet full length (RING finger protein leading to RIG-I activation) (enzyme, human, UniProt Q8IUD6 1-432, looked up)
chain: T1 sequence 2
notes: Riplet, human, full length (1-432); also called Riplet-FL; Riplet WT; source: E. coli Rosetta 2(DE3), purified (Ni-NTA, SEC); not shown: His6, N-terminal, cleaved; SUMO, N-terminal, cleaved
koff [1]: 0.0034 s⁻¹
kon [1]: 4600 M⁻¹ s⁻¹
koff [2]: 0.013 s⁻¹
kon [2]: 19000 M⁻¹ s⁻¹
koff [3]: 0.003 s⁻¹
kon [3]: 450000 M⁻¹ s⁻¹

B5: Riplet, full-length (Riplet-FL) (enzyme, human, UniProt Q8IUD6 1-432, looked up)
chain: T1 sequence 2
notes: Only the PrySpry domain is resolved in the cryo-EM maps; also called Riplet WT; E3 ligase Riplet; source: E. coli Rosetta 2(DE3), purified (Ni-NTA, ULP1 digestion, size exclusion); not shown: 6xHis, N-terminal, cleaved; SUMO, N-terminal, cleaved
Kd [5]: 700 nM
Kd [4]: 6.6 nM

Other lines, results leading:

Kd [4]: 1400 nM
B3: Riplet-PrySpry (249-432) (domain or fragment, human, UniProt Q8IUD6 249-432, looked up)
chain: B2 chain
notes: Riplet, human, PrySpry domain, residues 249-432 (RING and CC domains deleted); pET-SUMO-Riplet-PrySpry(249-432); the PDB entries are of the full-length parent; also called PrySpry domain alone; source: E. coli Rosetta 2(DE3), purified (Ni-NTA, ULP1 digestion, size exclusion); not shown: 6xHis, N-terminal, cleaved; SUMO, N-terminal, cleaved

Kd [1]: 700 nM
koff [1]: 0.073 s⁻¹
kon [1]: 110000 M⁻¹ s⁻¹
koff [2]: 0.067 s⁻¹
kon [2]: 54000 M⁻¹ s⁻¹
koff [3]: 0.0085 s⁻¹
kon [3]: 810000 M⁻¹ s⁻¹
B6: Riplet-ΔRING (94-432) (domain or fragment, human, UniProt Q8IUD6 94-432, looked up)
chain: AGSDPAHCPCPGSSSLSSAAARPRRRPELQRVAVEKSITEVAQELTELVEHLVDIVRSLQNQRPLSESGPDNELSILGKAFSSGVDLSMASPKLVTSDTAAGKIRDILHDLEEIQEKLQESVTWKEAPEAQMQGELLEAPSSSSCPLPDQSHPALRRASRFAQWAIHPTFNLKSLSCSLEVSKDSRTVTVSHRPQPYRWSCERFSTSQVLCSQALSSGKHYWEVDTRNCSHWAVGVASWEMSRDQVLGRTMDSCCVEWKGTSQLSAWHMVKETVLGSDRPGVVGIWLNLEEGKLAFYSVDNQEKLLYECTISASSPLYPAFWLYGLHPGNYLIIKQVKV
notes: Riplet, human, residues 94-432 (CC and PrySpry domains, RING deleted); source: E. coli Rosetta 2(DE3), purified (Ni-NTA, SEC); not shown: His6, N-terminal, cleaved; SUMO, N-terminal, cleaved

Kd [6]: 700 to 1200 nM
Kd [4]: 10 nM
B7: Riplet-ΔRING (94-432) (domain or fragment, human, UniProt Q8IUD6 94-432, looked up)
chain: B6 chain
notes: Riplet, human, residues 94-432 (RING domain deleted; CC and PrySpry domains kept); pET-SUMO-Riplet-ΔRING(94-432); the PDB entries are of the full-length parent; source: E. coli Rosetta 2(DE3), purified (Ni-NTA, ULP1 digestion, size exclusion); not shown: 6xHis, N-terminal, cleaved; SUMO, N-terminal, cleaved
